{"source": "patent US5968526A", "about": "“T cell epitopes of the major allergens from Dermatophagoides (house dust mite)” (Immulogic Pharamaceutical Corporation, priority 1995, dated 1999)", "key": {"[1]": {"tested_on": "PBMC from mite-allergic patient", "assay": "primary T cell (PBMC) proliferation, mite-allergic patient, tritiated thymidine", "type": "cell-based, human", "settings": "for CPM ± S.D.: medium 1071 ± 30", "protocol": "Peripheral blood mononuclear cells (PBMC) were purified by Ficoll-Hypaque centrifugation of a peripheral blood specimen from mite-allergic patient and were assayed for proliferation in response to various antigens, i.e., affinity-purified Der p I, affinity purified Der p II, various Der p I and Der p II peptides. For assay, 5×10^4 PBMC were cultured in triplicate microwells for 7 days at 37° C. in the presence of various concentrations of antigen in 200 μl RPMI-1640 containing 5% human AB serum. Each well then received 1 μCi tritiated thymidine for 16 hours. The counts incorporated were collected onto glass fiber filters and processed for liquid scintillation counting. […] The CPM +/- standard deviation are shown. The stimulation index of each response (S.I.) is the ratio of the ^3 H-thymidine CPM incorporated by the cells in response to antigen divided by the ^3 H-thymidine CPM incorporated by cells in medium only. […] Thus, these peptides contain Der p I or Der p II T cell epitopes recognized by T cells from this particular allergic patient."}, "human IgE": {"tested_on": "human IgE", "assay": "direct binding ELISA of IgE to mite allergen proteins and peptides", "settings": "for IgE binding (ELISA), modified peptides: plasma of 19 mite-allergic patients and pool of 18, Example XV; for IgE binding (ELISA): pooled human plasma, 20 patients, FIGS. 19-21", "protocol": "The coating antigens were removed and the wells are blocked with 0.5% gelatin in PBS, 300 μl/well for 2 hours at room temperature. Pooled human plasma (a mix of plasma samples from 20 patients that were skin test positive for commerical mite extract) was serially diluted with PBS-Tween 20 (PBS with 0.05% nonionic detergent Tween-20 Sigma, St. Louis, Mo.) and 100 μl/well a.backslash.was added and incubated overnight at 4° C. (plasma dilutions were tested in duplicate). The second antibody (biotinylated goat anti-Human IgE, 1:1000, Kirkegaard & Perry Laboratories Inc, Gaithersburg, Md.), was added at 100 μl/well for one hour at room temperature. This solution was removed and streptavidin-HRPO, 1:10000, (Southern Biotechnology Associates, Inc., Birmingham, Ala.) was then added at 100 μl/well for one hour at room temperature (all wells are washed three times with PBS-Tween between each incubation step). TMB Membrane Peroxidase Substrate system (Kirkegaard & Perry Laboratories) was freshly miced, and added at […]. The color was allowed to develop for 2-5 minutes. The reaction was stopped by the addition of […] of 1M phosphoric acid. Plates were read on a Microplate IL310 Autoreader (Biotech Instruments, Winooski, Vt.) with a 450 nm filter. The absorbance levels of duplicate wells were averaged. The order of coating antigens listed vertically in these figure legends corresponds in orDer from left to right to the coating antigens listed for each histogram.\nThe antigen preparation that was used as a positive control was a mixture of the four major biochemically purified mite allergens (term PMA for Purified Mite Allergen); Der f I, Der f II, Der p I and Der p II. The stock was generated at a concentration of 100 μgs of each protein per millimeter or 400 μgs total protein/ml. This preparation was used on each coated ELISA plate."}}, "data": [{"molecule": "Der p II: affinity purified native group II allergen of Dermatophagoides pteronyssinus (protein) MMYKILCLSLLVAAVARDQVDVKDCANHEIKKVLVPGCHGSEPCIIHRGKPFQLEAVFEANQNTKTAKIEIKASIDGLEVDVPGIDPNACHYMKCPLVKGQQYDIKYTWNVPKIAPKSENVVVTVKVMGDDGVLACAIATHAKIRD", "values": [{"measurement": "S.I.", "setting": "[1]; 10 μg/ml", "value": 1.0}, {"measurement": "CPM ± S.D.", "setting": "[1]; 10 μg/ml", "value": "1113 ± 35", "unit": "CPM"}, {"measurement": "S.I.", "setting": "[1]; 30 μg/ml", "value": 2.0}, {"measurement": "CPM ± S.D.", "setting": "[1]; 30 μg/ml", "value": "2104 ± 43", "unit": "CPM"}, {"measurement": "S.I.", "setting": "[1]; 100 μg/ml", "value": 1.0}, {"measurement": "CPM ± S.D.", "setting": "[1]; 100 μg/ml", "value": "1057 ± 27", "unit": "CPM"}, {"measurement": "IgE binding (ELISA), modified peptides", "setting": "human IgE", "value": "All samples did contain IgE"}, {"measurement": "IgE binding (ELISA)", "setting": "human IgE", "value": "good binding"}]}, {"molecule": "biochemically purified Der f-- I: purified native group I allergen of Dermatophagoides farinae (protein) MKFVLAIASLLVLSTVYARPASIKTFEEFKKAFNKNYATVEEEEVARKNFLESLKYVEANKGAINHLSDLSLDEFKNRYLMSAEAFEQLKTQFDLNAETSACRINSVNVPSELDLRSLRTVTPIRMQGGCGSCWAFSGVAATESAYLAYRNTSLDLSEQELVDCASQHGCHGDTIPRGIEYIQQNGVVEERSYPYVAREQRCRRPNSQHYGISNYCQIYPPDVKQIREALTQTHTAIAVIIGIKDLRAFQHYDGRTIIQHDNGYQPNYHAVNIVGYGSTQGDDYWIVRNSWDTTWGDSGYGYFQAGNNLMMIEQYPYVVIM", "values": [{"measurement": "IgE binding (ELISA)", "setting": "human IgE", "value": "binding"}]}, {"molecule": "Der p I: affinity purified native group I allergen of Dermatophagoides pteronyssinus (protein) KNRFLMSAEAFEHLKTQFDLNAETNACSINGNAPAEIDLRQMRTVTPIRMQGGCGSCWAFSGVAATESAYLAHRNQSLDLAEQELVDCASQHGCHGDTIPRGIEYIQHNGVVQESYYRYVAREQSCRRPNAQRFGISNYCQIYPPNANKIREALAQTHSAIAVIIGIKDLDAFRHYDGRTIIQRDNGYQPNYHAVNIVGYSNAQGVDYWIVRNSWDTNWGDNGYGYFAANIDLMMIEEYPYVVIL", "values": [{"measurement": "S.I.", "setting": "[1]; 10 μg/ml", "value": 0.9}, {"measurement": "CPM ± S.D.", "setting": "[1]; 10 μg/ml", "value": "920 ± 15", "unit": "CPM"}, {"measurement": "S.I.", "setting": "[1]; 30 μg/ml", "value": 2.0}, {"measurement": "CPM ± S.D.", "setting": "[1]; 30 μg/ml", "value": "2122 ± 93", "unit": "CPM"}, {"measurement": "S.I.", "setting": "[1]; 100 μg/ml", "value": 1.4}, {"measurement": "CPM ± S.D.", "setting": "[1]; 100 μg/ml", "value": "1492 ± 13", "unit": "CPM"}, {"measurement": "IgE binding (ELISA), modified peptides", "setting": "human IgE", "value": "All samples did contain IgE"}]}, {"molecule": "biochemically purified Der f II: purified native group II allergen of Dermatophagoides farinae (protein) DQVDVKDCANNEIKKVMVDGCHGSDPCIIHRGKPFTLEALFDANQNTKTAKTEIKASLDGLEIDVPGIDTNACHFMKCPLVKGQQYDAKYTWNVPKIAPKSENVVVTVKLVGDNGVLACAIATHAKIRD", "values": [{"measurement": "IgE binding (ELISA)", "setting": "human IgE", "value": "binding"}]}]}
